Reference: FireProtDB (doi:10.1110/ps.062595707)
Where “and” joins values, the source holds several entries; their conditions need not be identical. Identical values can stand only once.

B1: Ribose import binding protein RbsB, P02925 (parent)
chain: MNMKKLATLVSAVALSATVSANAMAKDTIALVVSTLNNPFFVSLKDGAQKEADKLGYNLVVLDSQNNPAKELANVQDLTVRGTKILLINPTDSDAVGNAVKMANQANIPVITLDRQATKGEVVSHIASDNVLGGKIAGDYIAKKAGEGAKVIELQGIAGTSAARERGEGFQQAVAAHKFNVLASQPADFDRIKGLNVMQNLLTAHPDVQAVFAQNDEMALGALRALQTAGKSDVMVVGFDGTPDGEKAVNDGKLAATIAQLPDQIGAKGVETADKVLKGEKVQAKYPVDLKLVVKQ

Variants of: B1
Settings: Escherichia coli (strain K12); pH 7; Thermal; CD; Phosphate 5 mM; structure 2DRI; whole UniProt chain shown

Variant	Tm	change of melting temperature, mutant - wild type (higher = more stable)
MNMKKLATLVSAVALSATVSANAMAKDTIALVVSTLNNPFFVSLKDGAQKEADKLGYNLVVLDSQNNPAKELANVQDLTVRGTKILLIAPTDSDAVGNAVKMANQANIPVITLDRQATKGEVVSHIASDNVLGGKIAGDYIAKKAGEGAKVIELQGIAGTSAARERGEGFQQAVAAHKFNVLASQPADFDRIKGLNVMQNLLTAHPDVQAVFAQNDEMALGALRALQTAGKSDVMVVGFDGTPDGEKAVNDGKLAATIAQLPDQIGAKGVETADKVLKGEKVQAKYPVDLKLVVKQ [N89A]	52.9 °C	-4.6 °C
MNMKKLATLVSAVALSATVSANAMAKDTIALVVATLNAPFFVSLKDGAQKEADKLGYNLVVLDSQNNPAKELANVQDLTVRGTKILLINPTDSDAVGNAVKMANQANIPVITLDRQATKGEVVSHIAADNVLGGKIAGDYIAKKAGEGAKVIELQGAAGTSAARERGEGFQQAVAAHKFNVLASQPADFDRIKGLNVMQNLLTAHPDVQAVFAQNDEMALGALRALQTAGKSDVMVVGFDGTPDGEKAVNDGKLAATIAALPDQIGAKGVETADKVLKGEKVQAKYPVDLKLVVKQ [S34A I157A S128A N38A Q260A]	59 °C	-4.7 °C
MNMKKLATLVSAVALSATVSANAMAKDTIALVVATLNNPFFVSLKDGAQKEADKLGYNLVVLDSQNNPAKELANVQDLTVRGTKILLINPTDSDAVGNAVKMANQANIPVITLDRQATKGEVVSHIASDNVLGGKIAGDYIAKKAGEGAKVIELQGIAGTSAARERGEGFQQAVAAHKFNVLASQPADFDRIKGLNVMQNLLTAHPDVQAVFAQNDEMALGALRALQTAGKSDVMVVGFDGTPDGEKAVNDGKLAATIAQLPDQIGAKGVETADKVLKGEKVQAKYPVDLKLVVKQ [S34A]	–	-1.5 °C and 0.1 °C
MNMKKLATLVSAVALSATVSANAMAKDTIALVVSTLNNPFFVSLKDGAQKEADKLGYNLVVLDSQNNPAKELANVQDLTVRGTKILLINPTDSDAVGNAVKMANQANIPVITLDRQATKGEVVSHIASDNVLGGKIAGDYIAKKAGEGAKVIELQGAAGTSAARERGEGFQQAVAAHKFNVLASQPADFDRIKGLNVMQNLLTAHPDVQAVFAQNDEMALGALRALQTAGKSDVMVVGFDGTPDGEKAVNDGKLAATIAQLPDQIGAKGVETADKVLKGEKVQAKYPVDLKLVVKQ [I157A]	57.3 °C and 61.2 °C	-0.2 °C and -2.5 °C
MNMKKLATLVSAVALSATVSANAMAKDTIALVVATLNAPFFVSLKDGAQKEADKLGYNLVVLDSQNNPAKELANVQDLTVRGTKILLINPTDSDAVGNAVKMANQANIPVITLDRQATKGEVVSHIAADNVLGGKIAGDYIAKKAGEGAKVIELQGAAGTSAARERGEGFQQAVAAHKFNVLASQPADFDRIKGLNVMQNLLTAHPDVQAVFAQNDEMALGALRALQTAGKSDVMVVGFDGTPDGEKAVNDGKLAATIAQLPDQIGAKGVETADKVLKGEKVQAKYPVDLKLVVKQ [S34A I157A S128A N38A]	54.7 °C	-9 °C
MNMKKLATLVSAVALSATVSANAMAKDTIALVVSTLNNPFFVSLKDGAQKEADKLGYNLVVLDSQNNPAKELANVQDLTVRGTKILLINPTDSDAVGNAVKMANQANIPVITLDRQATKGEVVSHIASDNVLGGKIAGDYIAKKAGEGAKVIELQGIAGTSAARERGEGFQQAVAAHKFNVLASQPADFDRIKGLNVMQNLLTAHPDVQAVFAQNDEMALGALRALQTAGKSDVMVVGADGTPDGEKAVNDGKLAATIAQLPDQIGAKGVETADKVLKGEKVQAKYPVDLKLVVKQ [F239A]	48 °C and 46 °C	–
MNMKKLATLVSAVALSATVSANAMAKDTIALVVSTLNNPFFVSLKDGAQKEADKLGYNLVVLDSQNNPAKELANVQDLTVRGTKILLINPTDSDAVGNAVKMANQANIPVITLDRQATKGEVVSHIASDNVLGGKIAGDYIAKKAGEGAKVIELQGIAGTSAARERGEGFQQAVAAHKFNVLASQPADFDRIKGLNVMQNLLTAHPDVQAVFAQNDEMALGALRALQTAGKSDVMVVGFAGTPDGEKAVNDGKLAATIAQLPDQIGAKGVETADKVLKGEKVQAKYPVDLKLVVKQ [D240A]	51.2 °C and 51.3 °C	–
MNMKKLATLVSAVALSATVSANAMAKDTIALVVATLNNPFFVSLKDGAQKEADKLGYNLVVLDSQNNPAKELANVQDLTVRGTKILLINPTDSDAVGNAVKMANQANIPVITLDRQATKGEVVSHIAADNVLGGKIAGDYIAKKAGEGAKVIELQGAAGTSAARERGEGFQQAVAAHKFNVLASQPADFDRIKGLNVMQNLLTAHPDVQAVFAQNDEMALGALRALQTAGKSDVMVVGFDGTPDGEKAVNDGKLAATIAQLPDQIGAKGVETADKVLKGEKVQAKYPVDLKLVVKQ [S34A I157A S128A]	53.4 °C and 53.7 °C	–
MNMKKLATLVSAVALSATVSANAMAKDTIALVVSTLNNPAFVSLKDGAQKEADKLGYNLVVLDSQNNPAKELANVQDLTVRGTKILLINPTDSDAVGNAVKMANQANIPVITLDRQATKGEVVSHIASDNVLGGKIAGDYIAKKAGEGAKVIELQGIAGTSAARERGEGFQQAVAAHKFNVLASQPADFDRIKGLNVMQNLLTAHPDVQAVFAQNDEMALGALRALQTAGKSDVMVVGFDGTPDGEKAVNDGKLAATIAQLPDQIGAKGVETADKVLKGEKVQAKYPVDLKLVVKQ [F40A]	52.5 °C and 54.2 °C	-5 °C and -9.5 °C
MNMKKLATLVSAVALSATVSANAMAKDTIALVVATLNNPFFVSLKDGAQKEADKLGYNLVVLDSQNNPAKELANVQDLTVRGTKILLINPTDSDAVGNAVKMANQANIPVITLDRQATKGEVVSHIASDNVLGGKIAGDYIAKKAGEGAKVIELQGAAGTSAARERGEGFQQAVAAHKFNVLASQPADFDRIKGLNVMQNLLTAHPDVQAVFAQNDEMALGALRALQTAGKSDVMVVGFDGTPDGEKAVNDGKLAATIAQLPDQIGAKGVETADKVLKGEKVQAKYPVDLKLVVKQ [S34A I157A]	–	-0.7 °C and 2.4 °C
MNMKKLATLVSAVALSATVSANAMAKDTIALVVSTLNNPFFVSLKDGAQKEADKLGYNLVVLDSQNNPAKELANVQDLTVRGTKILLINPTDSDAVGNAVKMANQANIPVITLDRQATKGEVVSHIASDNVLGGKIAGDYIAKKAGEGAKVIELQGIAGTSAARERGEGFQQAVAAHKFNVLASQPADFDRIKGLNVMQNLLTAHPDVQAVFAQNDEMALGALRALQTAGKSDVMVVGFDGTPDGEKAVNDGKLAATIAALPDQIGAKGVETADKVLKGEKVQAKYPVDLKLVVKQ [Q260A]	58.2 °C and 58.9 °C	–
MNMKKLATLVSAVALSATVSANAMAKDTIALVVSTLNNPFFVSLKDGAQKEADKLGYNLVVLDSQNNPAKELANVQDLTVRGTKILLINPTDSDAVGNAVKMANQANIPVITLARQATKGEVVSHIASDNVLGGKIAGDYIAKKAGEGAKVIELQGIAGTSAARERGEGFQQAVAAHKFNVLASQPADFDRIKGLNVMQNLLTAHPDVQAVFAQNDEMALGALRALQTAGKSDVMVVGFDGTPDGEKAVNDGKLAATIAQLPDQIGAKGVETADKVLKGEKVQAKYPVDLKLVVKQ [D114A]	58.2 °C and 57.2 °C	–
MNMKKLATLVSAVALSATVSANAMAKDTIALVVSTLNAPFFVSLKDGAQKEADKLGYNLVVLDSQNNPAKELANVQDLTVRGTKILLINPTDSDAVGNAVKMANQANIPVITLDRQATKGEVVSHIASDNVLGGKIAGDYIAKKAGEGAKVIELQGIAGTSAARERGEGFQQAVAAHKFNVLASQPADFDRIKGLNVMQNLLTAHPDVQAVFAQNDEMALGALRALQTAGKSDVMVVGFDGTPDGEKAVNDGKLAATIAQLPDQIGAKGVETADKVLKGEKVQAKYPVDLKLVVKQ [N38A]	58.2 °C and 60.1 °C	0.7 °C and -3.6 °C
MNMKKLATLVSAVALSATVSANAMAKDTIALVVSTLNNPFFVSLKDGAQKEADKLGYNLVVLDSQNNPAKELANVQDLTVRGTKILLINPTDSDAVGNAVKMANQANIPVITLDRQATKGEVVSHIASDNVLGGKIAGDYIAKKAGEGAKVIELQGIAGTSAARERGEGFQQAVAAHKFNVLASQPADADRIKGLNVMQNLLTAHPDVQAVFAQNDEMALGALRALQTAGKSDVMVVGFDGTPDGEKAVNDGKLAATIAQLPDQIGAKGVETADKVLKGEKVQAKYPVDLKLVVKQ [F189A]	51.7 °C and 53.3 °C	-5.8 °C and -10.4 °C
MNMKKLATLVSAVALSATVSANAMAKDTIALVVSTLNNPFFVSLKDGAQKEADKLGYNLVVLDSQNNPAKELANVQDLTVRGTKILLINPTDSDAVGNAVKMANQANIPVITLDRQATKGEVVSHIASDNVLGGKIAGDYIAKKAGEGAKVIELQGIAGTSAARERGEGFQQAVAAHKFNVLASQPADFDRIKGLNVMQNLLTAHPDVQAVFAQADEMALGALRALQTAGKSDVMVVGFDGTPDGEKAVNDGKLAATIAQLPDQIGAKGVETADKVLKGEKVQAKYPVDLKLVVKQ [N215A]	49.4 °C and 51.5 °C	-8.1 °C and -12.2 °C
MNMKKLATLVSAVALSATVSANAMAKDTIALVVSTLNNPFFVSLKDGAQKEADKLGYNLVVLDSQNNPAKELANVQDLTVRGTKILLINPTDSDAVGNAVKMANQANIPVITLDRQATKGEVVSHIAADNVLGGKIAGDYIAKKAGEGAKVIELQGIAGTSAARERGEGFQQAVAAHKFNVLASQPADFDRIKGLNVMQNLLTAHPDVQAVFAQNDEMALGALRALQTAGKSDVMVVGFDGTPDGEKAVNDGKLAATIAQLPDQIGAKGVETADKVLKGEKVQAKYPVDLKLVVKQ [S128A]	57.8 °C and 60.7 °C	0.3 °C and -3 °C
MNMKKLATLVSAVALSATVSANAMAKDTIALVVSTLNNPFAVSLKDGAQKEADKLGYNLVVLDSQNNPAKELANVQDLTVRGTKILLINPTDSDAVGNAVKMANQANIPVITLDRQATKGEVVSHIASDNVLGGKIAGDYIAKKAGEGAKVIELQGIAGTSAARERGEGFQQAVAAHKFNVLASQPADFDRIKGLNVMQNLLTAHPDVQAVFAQNDEMALGALRALQTAGKSDVMVVGFDGTPDGEKAVNDGKLAATIAQLPDQIGAKGVETADKVLKGEKVQAKYPVDLKLVVKQ [F41A]	58.9 °C and 57.4 °C	–
